Measurements as given in patent publication US20070036794A1 (Genentech, published 2007).
Like-named read-outs stand apart in the source and are kept apart here.

Assays:
[1] = biological target: T1, gD-tagged trkC (human trkC-gD) (human, UniProt Q16288 32-429); assay: competition ELISA on gD-trkC; competitor: unlabelled 2253 (50 µg/ml); biotin-MAb 1 µg/ml; SA-HRP;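 further: negative control competitors were unlabelled human IgG2 and mouse IgG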
T1 construct: purified antigen of the ELISAs and SPR; also called gD-trkC
T1 sequence (Q16288 32-429 S70N): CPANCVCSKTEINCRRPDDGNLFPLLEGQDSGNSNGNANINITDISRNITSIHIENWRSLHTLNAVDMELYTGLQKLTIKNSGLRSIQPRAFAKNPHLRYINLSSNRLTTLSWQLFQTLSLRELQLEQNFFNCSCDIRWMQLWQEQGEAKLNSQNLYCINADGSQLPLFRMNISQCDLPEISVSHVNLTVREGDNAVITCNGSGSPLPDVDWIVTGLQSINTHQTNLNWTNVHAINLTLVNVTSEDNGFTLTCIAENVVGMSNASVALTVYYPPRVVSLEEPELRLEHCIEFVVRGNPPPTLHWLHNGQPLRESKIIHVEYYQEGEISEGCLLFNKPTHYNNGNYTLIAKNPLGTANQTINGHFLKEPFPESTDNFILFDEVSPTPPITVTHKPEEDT
Experimental: (§1) A competition ELISA was used to get preliminary information about various groups to which these antibodies belong depending on the epitope(s) on trkC they recognize. In this assay, trkC-gD (1 μg/ml) was used as a capture antigen to coat microliter plate. A specific biotinylated anti-trkC monoclonal antibody (1 μg/ml) was added to the coated plate either alone or in presence of another anti-trkC monoclonal antibody that was unlabeled and used in excess (50 μg/ml) as compared to the labeled antibody. If biotinylated antibody and unlabeled antibody both recognize the same or overlapping epitope, they will compete for binding to the immobilized trkC, resulting in decreased binding of the labeled antibody. If they recognize different and non-overlapping epitopes, there will be no competition between them, and the binding of the labeled antibody to the immobilized trkC will not be affected. Unlabeled human IgG2 and mouse IgG were used as negative control.

trkC mutant L286H [2] = biological target: T2, trkC mutant L286H (human, UniProt Q16288 32-429, limits assumed); assay: binding titration on trkC point mutants
T2 construct: point mutant in domain 5
T2 sequence (Q16288 32-429 S70N/L317H limits assumed): as the sequence (Q16288 32-429 S70N) above, with L286H counted along it

trkC mutant N335A [3] = biological target: T3, trkC mutant N335A (human, UniProt Q16288 32-429, limits assumed); assay: binding titration on trkC point mutants
T3 construct: point mutant in domain 5
T3 sequence (Q16288 32-429 S70N/N366A limits assumed): as the sequence (Q16288 32-429 S70N) above, with N335A counted along it

trkC mutant E287K [4] = biological target: T4, trkC mutant E287K (human, UniProt Q16288 32-429, limits assumed); assay: binding titration on trkC point mutants
T4 construct: point mutant in domain 5
T4 sequence (Q16288 32-429 S70N/E318K limits assumed): as the sequence (Q16288 32-429 S70N) above, with E287K counted along it

trkC mutant L284E [5] = biological target: T5, trkC mutant L284E (human, UniProt Q16288 32-429, limits assumed); assay: binding titration on trkC point mutants
T5 construct: point mutant in domain 5
T5 sequence (Q16288 32-429 S70N/L315E limits assumed): as the sequence (Q16288 32-429 S70N) above, with L284E counted along it

trkC mutant H318A = biological target: T6, trkC mutant H318A (human, UniProt Q16288 32-429, limits assumed); assay: binding titration on trkC point mutants
T6 construct: point mutant in domain 5
T6 sequence (Q16288 32-429 S70N/H349A limits assumed): as the sequence (Q16288 32-429 S70N) above, with H318A counted along it

[6] = biological target: T1, gD-tagged trkC (human trkC-gD); assay: competition ELISA on gD-trkC; competitor: unlabelled 6.4.1 (50 µg/ml); biotin-MAb 1 µg/ml; SA-HRP;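 further: negative control competitors were unlabelled human IgG2 and mouse IgG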
Experimental: as §1

[7] = biological target: wildtype trkC (reference of Table 5) (human, UniProt Q16288 32-429, limits assumed); assay: binding titration on trkC point mutants; wildtype reference row
Sequence of wildtype trkC (reference of Table 5) (Q16288 32-429 S70N limits assumed): as the sequence (Q16288 32-429 S70N) above

[8] = biological target: T1, gD-tagged trkC (human trkC-gD); assay: competition ELISA on gD-trkC; competitor: unlabelled 2250 (50 µg/ml); biotin-MAb 1 µg/ml; SA-HRP;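 further: negative control competitors were unlabelled human IgG2 and mouse IgG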
Experimental: as §1

[9] = biological target: T1, gD-tagged trkC (human trkC-gD); assay: competition ELISA on gD-trkC; competitor: unlabelled 2256 (50 µg/ml); biotin-MAb 1 µg/ml; SA-HRP;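 further: negative control competitors were unlabelled human IgG2 and mouse IgG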
Experimental: as §1

[10] = biological target: T1, gD-tagged trkC (human trkC-gD); assay: SPR (BIAcore), IgG over immobilized gD-trkC (400-600 RU)
[11] = biological target: T1, gD-tagged trkC (human trkC-gD); assay: competition ELISA on gD-trkC; competitor: unlabelled 2349 (50 µg/ml); biotin-MAb 1 µg/ml; SA-HRP;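 further: negative control competitors were unlabelled human IgG2 and mouse IgG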
Experimental: as §1

[12] = biological target: T1, gD-tagged trkC (human trkC-gD); assay: SPR (BIAcore), gD-trkC over immobilized IgG
[13] = biological target: T1, gD-tagged trkC (human trkC-gD); assay: SPR (BIAcore), summary table
[14] = biological target: T7, trkC fused with a gD flag epitope, on stably transfected CHO cells (KIRA); assay: cell-based or functional assay
[15] = biological target: T1, gD-tagged trkC (human trkC-gD); assay: competition ELISA on gD-trkC; competitor: unlabelled 6.1.2 (50 µg/ml); biotin-MAb 1 µg/ml; SA-HRP;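 further: negative control competitors were unlabelled human IgG2 and mouse IgG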
Experimental: as §1

trkC mutant R285A [16] = biological target: T8, trkC mutant R285A (human, UniProt Q16288 32-429, limits assumed); assay: binding to trkC point mutants (NB = no binding observed)
T8 construct: point mutant in domain 5
T8 sequence (Q16288 32-429 S70N/R316A limits assumed): as the sequence (Q16288 32-429 S70N) above, with R285A counted along it

[17] = biological target: T7, trkC fused with a gD flag epitope, on …; assay: cell-based or functional assay; remark: listed apart in the source
trkC mutant R285A [18] = biological target: T8, trkC mutant R285A; assay: binding titration on trkC point mutants
[19] = biological target: T1, gD-tagged trkC (human trkC-gD); assay: competition ELISA on gD-trkC; competitor: unlabelled 2345 (50 µg/ml); biotin-MAb 1 µg/ml; SA-HRP;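 further: negative control competitors were unlabelled human IgG2 and mouse IgG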
Experimental: as §1

trkC mutant L286H [20] = biological target: T2, trkC mutant L286H; assay: binding to trkC point mutants (NB = no binding observed)
trkC mutant E287K [21] = biological target: T4, trkC mutant E287K; assay: as above
trkC mutant L284E [22] = biological target: T5, trkC mutant L284E; assay: as above
[23] = biological target: T1, gD-tagged trkC (human trkC-gD); assay: competition ELISA on gD-trkC; competitor: unlabelled 2.5.1 (50 µg/ml); biotin-MAb 1 µg/ml; SA-HRP;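 further: negative control competitors were unlabelled human IgG2 and mouse IgG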
Experimental: as §1

trkC mutant N335A [24] = biological target: T3, trkC mutant N335A; assay: binding to trkC point mutants (NB = no binding observed)

Binder	signal of the biotin-MAb in the competition ELISA [1]	ratio EC50 mutant/EC50 wildtype trkC (trkC mutant L286H [2])	ratio EC50 mutant/EC50 wildtype trkC (trkC mutant N335A [3])	ratio EC50 mutant/EC50 wildtype trkC (trkC mutant E287K [4])	ratio EC50 mutant/EC50 wildtype trkC (trkC mutant L284E [5])	ratio EC50 mutant/EC50 wildtype trkC (trkC mutant H318A)	signal of the biotin-MAb in the competition ELISA [6]	ratio EC50 mutant/EC50 wildtype trkC [7]	signal of the biotin-MAb in the competition ELISA [8]	signal of the biotin-MAb in the competition ELISA [9]	Kd [10]	signal of the biotin-MAb in the competition ELISA [11]	Kd [12]	Kd [13]	signal of the biotin-MAb in the competition ELISA [15]	EC50 (read off the curve), trkC tyrosine phosphorylation, KIRA [17]	ratio EC50 mutant/EC50 wildtype trkC (trkC mutant R285A [18])	signal of the biotin-MAb in the competition ELISA [19]	binding result (trkC mutant E287K [21])	binding result (trkC mutant L284E [22])	other results
anti-trkC agonist monoclonal antibody 2256 (antibody, mouse IgG1, V domains shown, murine IgG1; heavy chain subgroup IIA, light chain kappa III) VH: QVQLQQPGAELVKPGASVKLSCKASGYTFTSYWMHWVKQRPGQGLEWIGEIYPSNGRTNYNEKFKSKATLTVDKSSSTAYMQLSSLTSEDSAVYYCARKYYYGNSYRSWYFDVWGAGTTLTVSS VL: not shown	0.02	0.6 ratio	0.5 ratio	0.7 ratio	1.1 ratio	0.8 ratio	0.12	1 ratio	0.01	0.02	62 nM	0.07	300 nM	62 nM	0.13	–	–	–	–	–	EC50 (read off the curve), trkC tyrosine phosphorylation, KIRA [14]: ~4 nM; binding result (trkC mutant R285A [16]): no binding
neurotrophin-3 (NT-3) (ligand, UniProt P20783 139-257, looked up) YAEHKSHRGEYSVCDSESLWVTDKSSAIDIRGHQVTVLGEIKTGNSPVKQYFYETRCKEARPVKNGCRGIDDKHWNSQCKTSQTYVRALTSENNKLVGWRWIRIDTSCVCALSRKIGRT	–	–	–	–	–	–	–	–	–	–	–	–	–	–	–	5 to 9 nM	–	–	–	–	EC50 (read off the curve), trkC tyrosine phosphorylation, KIRA [14]: 5 to 9 nM
anti-trkC agonist monoclonal antibody 6.4.1 (antibody, human IgG2, V domains shown, human IgG2 from Xenomouse hybridoma; heavy chain subgroup II, light chain kappa I; also called Mab 6.4.1) VH: QVQLQESGPGLVRPSETLSLTCTVSGGSISTYYWNWIRQPAGKGLEWIGRIYTSGSTNYNPSLKSRVTMSVDTSKNQFSLKLSSVTAADTAVYYCARDGGYSNPFDWGQGTLVTVSS VL: not shown	0.03	–	0.3 ratio	–	–	0.7 ratio	0.07	1 ratio	0.1	0.1	12 nM	0.1	28 nM	12 nM	–	~3 nM	0.8 ratio	0.12	no binding	no binding	binding result (trkC mutant L286H [20]): no binding
anti-trkC agonist monoclonal antibody 2345 (antibody, human IgG2, V domains shown, human IgG2 from Xenomouse hybridoma; heavy chain subgroup II, light chain kappa III) VH: QVQLQESGPGLVKPSQTLSLTCTVSGGSISSGGYYWSWIRQHPEKGLEWIGYIFYSGRTYYNPSLKSRVTISVDTSKNQFSLKLNSVTAADTAVYYCARERIAAAGADYYYNGLDVWGQGTTVTVSS VL: EIVLTQSPGTLSLSPGERATLSCRASQSVSSNYLTWYQQKPGQAPRLLIYGASSRATGIPDRFSGSGSGTDFTLTISRLEPEDFAVYYCQQYGRSPPITFGQGTRLEIKR	0.07	0.5 ratio	–	–	–	1 ratio	–	1 ratio	0.04	–	12 nM	0.02	–	12.1 nM	0.11	~2 nM	1 ratio	0.04	no binding	no binding	signal of the biotin-MAb in the competition ELISA [23]: 0.17; binding result (trkC mutant N335A [24]): no binding
anti-trkC agonist monoclonal antibody 2349 (antibody, human IgG4, V domains shown, human IgG4 from Xenomouse hybridoma; heavy chain subgroup II, light chain kappa III) VH: QVQLQESGPGLVKPSQTLSLTCTVSGGSISSGYYYWSWIRQHPGKGLEWIGYIYYSGSTYYNPSLKSRLTISVDTSKNQFSLKLSSVTAADTAVYYCARERIAAAGTDYYYNGLAVWGQGTTVTVSS VL: GIVLTQSPGTLSLSPGERATFSCRASQSGSSTYLAWYQQKPGQAPRLLIYGASSRATGIPDRFSGSGSGTDFTLTISRLEPEDFAVYYCQQYGRSPPITFGQGTRLEIKR	0.03	0.6 ratio	1.5 ratio	–	–	0.7 ratio	0.03	1 ratio	0.02	0.02	23 nM	0	–	23 nM	0.04	~3 nM	0.9 ratio	0.01	no binding	no binding	–
anti-trkC agonist monoclonal antibody 2253 (antibody, mouse IgG1, V domains shown, murine IgG1; heavy chain subgroup IIA, light chain kappa IV) VH: QVQLQQSGAELMQPGASVKISCKSTGYTFSNFWIEWVKQRPGHGLEWIGEILPGSDNTNYNEKFKGKATFTADTSSNTAYMQLSSLTSEDSAVYYCARKNRNYYGNYVVWGAGTTLTVSS VL: QIVLTQSPAIMSASPGEKVTITCSASSSVSYMYWFQQKPGTSPKLWIYSTSNLASGVPARFSGSGSGTSYSLTISRMEAEDAATYYCQQRSSYPLTFGAGTKLELKR	0	0.4 ratio	0.5 ratio	0.7 ratio	0.7 ratio	0.8 ratio	–	1 ratio	1.24	1.34	42 nM	–	51 nM	42 nM	–	–	0.9 ratio	1.4	–	–	signal of the biotin-MAb in the competition ELISA [23]: 1.4
